Results: paper PMC3000319 (PLoS ONE, 2010)

Biological target: the molecule itself
Test: AUC

B1: recombinant ovine PrP (25–233) (natural protein)
chain: not shown
For B1, the “stoichiometry N” value was 2.
